Laboratory results: US11584938B2, “Plant EPSPS mutant containing L195P and S247G mutations and encoding gene and use thereof” (GEVOTO LLC, priority 2017, dated 2023)
Residue numbers refer to the chain shown, from its start.

Test system: transgenic rice plants
Test: glyphosate resistance of the EPSPS mutant in transgenic rice plants sprayed with Roundup 41% ammonium glyphosate
Type: in vivo, rice (Nipponbare)
Procedure, shortened: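 EPSPS mutant genes were cloned into pGVP1 and introduced into Nipponbare rice embryo-derived calluses via Agrobacterium EHA105 (OD 0.2, 10 min infection, 2–3 days co-culture at 25 °C in the dark). Calluses went through recovery, two 14-day screening rounds at 30 °C, two differentiation rounds and rooting to regenerate transgenic plants.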

[1] = 1× dosage 1060 g/hectare glyphosate sprayed, recorded on 10th day
[2] = 2× dosage 2120 g/hectare sprayed to plants surviving 1×, recorded 10 days later
[3] = 5× dosage 5300 g/hectare sprayed to plants surviving 2×, recorded 10 days later
[4] = 20× dosage 21200 g/hectare sprayed to plants surviving 5×, recorded 10 days later

B1: T5: wheat EPSPS mutant, SEQ ID NO: 24, mutations L216(195)P and S269(247)G (protein)
chain: MATSVAAPAAPAGAEEVVLQPIREISGAVQLPGSKSLSNRILLLSALSEGTTVVDNLLNSEDVHYMLEALEALGLSVEADKVAKRAVVVGCGGRFPVEKDAKEEVKLFLGNAGTAMRPLTAAVVAAGGNATYVLDGVPRMRERPIGDLVVGLQQLGADVDCFLGTNCPPVRINGKGGLPGGKVKLSGSISSQYLSSLLMAAPLALEDVEIEIIDKPISVPYVEMTLKLMEHFGVTAEHSDSWDRFYIKGGQKYKSPGNAYVEGDASSAGYFLAGAAITGGTVTVEGCGTTSLQGDVKFAEVLEMMGAKVTWTDTSVTVTGPPRQPFGRKHLKAVDVNMNKMPDVAMTLAVVALFADGPTAIRDVASWRVKETERMVAIRTELTKLGATVEEGPDYCIITPPEKLNITAIDTYDDHRMAMAFSLAACAEVPVTIRDPGCTRKTFPNYFDVLSTFVKN
%++&+++ (percentage of plant having medium and high glyphosate resistance to the total number of plants observed) [1]: 45.5% | number of plants denoted by + (low glyphosate resistance) [1]: 6 | number of plants denoted by ++ (medium glyphosate resistance) [1]: 3 | number of plants denoted by +++ (high glyphosate resistance) [1]: 7 | number of plants denoted by − (no glyphosate resistance) [1]: 6 | glyphosate resistance / survival of the rice transformed by the EPSPS, in words (1× glyphosate dosage): obviously superior to that of the rice seedlings transformed by T0 | %++&+++ (percentage of plant having medium and high glyphosate resistance to the total number of plants observed) [2]: 84.6% | number of plants denoted by + (low glyphosate resistance) [2]: 8 | number of plants denoted by ++ (medium glyphosate resistance) [2]: 4 | number of plants denoted by +++ (high glyphosate resistance) [2]: 0 | number of plants denoted by − (no glyphosate resistance) [2]: 10 | glyphosate resistance / survival of the rice transformed by the EPSPS, in words (2× glyphosate dosage): some of the transgenic rice seedlings transformed by T4, T1 and T5 still survived | &++&+++ (percentage of plant having medium and high glyphosate resistance to the total number of plants observed) [3]: 18.2% | number of plants denoted by + (low glyphosate resistance) [3]: 5 | number of plants denoted by ++ (medium glyphosate resistance) [3]: 4 | number of plants denoted by +++ (high glyphosate resistance) [3]: 0 | number of plants denoted by − (no glyphosate resistance) [3]: 13 | glyphosate resistance / survival of the rice transformed by the EPSPS, in words (5× glyphosate dosage): some of the transgenic rice seedlings transformed by T4, T1 and T5 still survived | &++&+++ (percentage of plant having medium and high glyphosate resistance to the total number of plants observed) [4]: 13.6% | number of plants denoted by + (low glyphosate resistance) [4]: 3 | number of plants denoted by ++ (medium glyphosate resistance) [4]: 3 | number of plants denoted by +++ (high glyphosate resistance) [4]: 0 | number of plants denoted by − (no glyphosate resistance) [4]: 16

B2: T6: wheat EPSPS mutant, SEQ ID NO: 26, mutations L216(195)P, S269(247)G and P118(101)S (protein)
chain: B1 chain with P118S
%++&+++ (percentage of plant having medium and high glyphosate resistance to the total number of plants observed) [1]: 85.9% | number of plants denoted by + (low glyphosate resistance) [1]: 7 | number of plants denoted by ++ (medium glyphosate resistance) [1]: 15 | number of plants denoted by +++ (high glyphosate resistance) [1]: 52 | number of plants denoted by − (no glyphosate resistance) [1]: 4 | glyphosate resistance / survival of the rice transformed by the EPSPS, in words (1× glyphosate dosage): had relatively high resistance to glyphosate | %++&+++ (percentage of plant having medium and high glyphosate resistance to the total number of plants observed) [2]: 0.0% | number of plants denoted by + (low glyphosate resistance) [2]: 4 | number of plants denoted by ++ (medium glyphosate resistance) [2]: 25 | number of plants denoted by +++ (high glyphosate resistance) [2]: 41 | number of plants denoted by − (no glyphosate resistance) [2]: 8 | &++&+++ (percentage of plant having medium and high glyphosate resistance to the total number of plants observed) [3]: 76.9% | number of plants denoted by + (low glyphosate resistance) [3]: 9 | number of plants denoted by ++ (medium glyphosate resistance) [3]: 37 | number of plants denoted by +++ (high glyphosate resistance) [3]: 23 | number of plants denoted by − (no glyphosate resistance) [3]: 9 | &++&+++ (percentage of plant having medium and high glyphosate resistance to the total number of plants observed) [4]: 71.8% | number of plants denoted by + (low glyphosate resistance) [4]: 7 | number of plants denoted by ++ (medium glyphosate resistance) [4]: 56 | number of plants denoted by +++ (high glyphosate resistance) [4]: 0 | number of plants denoted by − (no glyphosate resistance) [4]: 15

B3: R0: wild-type rice EPSPS, amino acid sequence SEQ ID NO: 28; control (protein, listed as Oryza sativa)
chain: MASNAAAAAAKAEEIVLQPIREISGAVQLPGSKSLSNRILLLSALSEGTTVVDNLLNSEDVHYMLEALKALGLSVEADKVAKRAVVVGCGGKFPVEKDAKEEVQLFLGNAGTAMRPLTAAVTAAGGNATYVLDGVPRMRERPIGDLVVGLKQLGADVDCFLGTECPPVRVKGIGGLPGGKVKLSGSISSQYLSALLMAAPLALGDVEIEIIDKLISIPYVEMTLRLMERFGVKAEHSDSWDRFYIKGGQKYKSPGNAYVEGDASSASYFLAGAAITGGTVTVQGCGTTSLQGDVKFAEVLEMMGAKVTWTDTSVTVTGPPREPYGKKHLKAVDVNMNKMPDVAMTLAVVALFADGPTAIRDVASWRVKETERMVAIRTELTKLGASVEEGPDYCIITPPEKLNITAIDTYDDHRMAMAFSLAACADVPVTIRDPGCTRKTFPNYFDVLSTFVRN
%++&+++ (percentage of plant having medium and high glyphosate resistance to the total number of plants observed) [1]: 0.0% | number of plants denoted by + (low glyphosate resistance) [1]: 1 | number of plants denoted by ++ (medium glyphosate resistance) [1]: 0 | number of plants denoted by +++ (high glyphosate resistance) [1]: 0 | number of plants denoted by − (no glyphosate resistance) [1]: 30 | glyphosate resistance / survival of the rice transformed by the EPSPS, in words (1× glyphosate dosage): had no resistance, one was seriously damaged, and all the others died | %++&+++ (percentage of plant having medium and high glyphosate resistance to the total number of plants observed) [2]: 45.8% | number of plants denoted by + (low glyphosate resistance) [2]: 0 | number of plants denoted by ++ (medium glyphosate resistance) [2]: 0 | number of plants denoted by +++ (high glyphosate resistance) [2]: 0 | number of plants denoted by − (no glyphosate resistance) [2]: 31 | &++&+++ (percentage of plant having medium and high glyphosate resistance to the total number of plants observed) [3]: 0.0% | number of plants denoted by + (low glyphosate resistance) [3]: 0 | number of plants denoted by ++ (medium glyphosate resistance) [3]: 0 | number of plants denoted by +++ (high glyphosate resistance) [3]: 0 | number of plants denoted by − (no glyphosate resistance) [3]: 31 | &++&+++ (percentage of plant having medium and high glyphosate resistance to the total number of plants observed) [4]: 0.0% | number of plants denoted by + (low glyphosate resistance) [4]: 0 | number of plants denoted by ++ (medium glyphosate resistance) [4]: 0 | number of plants denoted by +++ (high glyphosate resistance) [4]: 0 | number of plants denoted by − (no glyphosate resistance) [4]: 31

B4: R2: rice EPSPS mutant, SEQ ID NO: 32, merely containing the mutation P116(101)S; control (protein)
chain: B3 chain with P116S
%++&+++ (percentage of plant having medium and high glyphosate resistance to the total number of plants observed) [1]: 81.0% | number of plants denoted by + (low glyphosate resistance) [1]: 9 | number of plants denoted by ++ (medium glyphosate resistance) [1]: 10 | number of plants denoted by +++ (high glyphosate resistance) [1]: 37 | number of plants denoted by − (no glyphosate resistance) [1]: 2 | glyphosate resistance / survival of the rice transformed by the EPSPS, in words (1× glyphosate dosage): had relatively high resistance to glyphosate | %++&+++ (percentage of plant having medium and high glyphosate resistance to the total number of plants observed) [2]: 26.8% | number of plants denoted by + (low glyphosate resistance) [2]: 17 | number of plants denoted by ++ (medium glyphosate resistance) [2]: 18 | number of plants denoted by +++ (high glyphosate resistance) [2]: 14 | number of plants denoted by − (no glyphosate resistance) [2]: 9 | glyphosate resistance / survival of the rice transformed by the EPSPS, in words (2× glyphosate dosage): had relatively high resistance to glyphosate | &++&+++ (percentage of plant having medium and high glyphosate resistance to the total number of plants observed) [3]: 3.4% | number of plants denoted by + (low glyphosate resistance) [3]: 40 | number of plants denoted by ++ (medium glyphosate resistance) [3]: 2 | number of plants denoted by +++ (high glyphosate resistance) [3]: 0 | number of plants denoted by − (no glyphosate resistance) [3]: 16 | &++&+++ (percentage of plant having medium and high glyphosate resistance to the total number of plants observed) [4]: 0.0% | number of plants denoted by + (low glyphosate resistance) [4]: 1 | number of plants denoted by ++ (medium glyphosate resistance) [4]: 0 | number of plants denoted by +++ (high glyphosate resistance) [4]: 0 | number of plants denoted by − (no glyphosate resistance) [4]: 57

B5: R1: rice EPSPS mutant, SEQ ID NO: 30, mutation L214(195)P (protein)
chain: B3 chain with L214P
%++&+++ (percentage of plant having medium and high glyphosate resistance to the total number of plants observed) [1]: 63.2% | number of plants denoted by + (low glyphosate resistance) [1]: 1 | number of plants denoted by ++ (medium glyphosate resistance) [1]: 1 | number of plants denoted by +++ (high glyphosate resistance) [1]: 11 | number of plants denoted by − (no glyphosate resistance) [1]: 6 | glyphosate resistance / survival of the rice transformed by the EPSPS, in words (1× glyphosate dosage): obviously superior to that of the rice seedlings transformed by R0 | %++&+++ (percentage of plant having medium and high glyphosate resistance to the total number of plants observed) [2]: 55.2% | number of plants denoted by + (low glyphosate resistance) [2]: 3 | number of plants denoted by ++ (medium glyphosate resistance) [2]: 10 | number of plants denoted by +++ (high glyphosate resistance) [2]: 1 | number of plants denoted by − (no glyphosate resistance) [2]: 10 | glyphosate resistance / survival of the rice transformed by the EPSPS, in words (2× glyphosate dosage): some of the transgenic rice seedlings transformed by R1 and R4 still survived | &++&+++ (percentage of plant having medium and high glyphosate resistance to the total number of plants observed) [3]: 4.2% | number of plants denoted by + (low glyphosate resistance) [3]: 9 | number of plants denoted by ++ (medium glyphosate resistance) [3]: 1 | number of plants denoted by +++ (high glyphosate resistance) [3]: 0 | number of plants denoted by − (no glyphosate resistance) [3]: 14 | glyphosate resistance / survival of the rice transformed by the EPSPS, in words (5× glyphosate dosage): some of the transgenic rice seedlings transformed by R1 and R4 still survived | &++&+++ (percentage of plant having medium and high glyphosate resistance to the total number of plants observed) [4]: 0.0% | number of plants denoted by + (low glyphosate resistance) [4]: 4 | number of plants denoted by ++ (medium glyphosate resistance) [4]: 0 | number of plants denoted by +++ (high glyphosate resistance) [4]: 0 | number of plants denoted by − (no glyphosate resistance) [4]: 20 | glyphosate resistance / survival of the rice transformed by the EPSPS, in words (20× glyphosate dosage): some of the transgenic rice seedlings transformed by R1 and R4 still survived
